Drawing on the supplement of paper PMC12042874, this text covers amyloid nucleation score for 141 substances.

± gives the uncertainty stated by the source.

The nature of this data set: amyloid nucleation score (Sup35N fusion, yeast selection) (log enrichment); library NNK2; higher = more nucleation; inactive = no reads after selection. The method in brief:
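After 24 hours of induction with 100 μM copper sulfate, psi-negative yeast expressing peptides of 20 random codons fused to Sup35N were grown for 7 days at 30°C on medium lacking adenine and uracil. Input and output plasmid inserts were sequenced with Illumina, and sequences with under 100 input reads were discarded. Scores for nucleation are the DiMSum log enrichment of output over input reads, centred on the mode score of non-aggregating sequences.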
Regarding RDYGQFCRSFGHLGLFLGSQ, the amyloid nucleation score entry was “inactive”. FIVWVV displayed an amyloid nucleation score of -0.916 ± 1.1. Next, MRQWEQNSCYDLPAYLWNVG: -0.079 ± 0.56; SGNKAMWKIIPLT: -0.262 ± 0.27; YSSKFSYGMMCTRWDIVQYK: -0.451 ± 0.76. In the case of YMFRDQVWYMTYKDYGHGIR, the amyloid nucleation score was -0.249 ± 1.1. With AGWQCLCSLFLLKEITTCIS the figure was -0.367 ± 0.56. Next, DGYIELS: 0.302 ± 0.41.

As for NLSSWTVLILRSDAVVPVFL, the amyloid nucleation score came out at 4.07 ± 0.078. With WSIPLSLMQSIRSCYNELIN the figure was 3.67 ± 0.11; with KNTYKQACWQAELHKGLLVG, 0.748 ± 0.17; with TLSKYCEDKFEWFCIAVICR, 6.95 ± 0.04. With CHKVWSKEDWATVWSVGGLV the figure was -0.02 ± 1.1; with LWAGDLFDRGP, 0.709 ± 0.66; with FEMIC, 0.783 ± 0.57.

On to SRLVFS, for which the amyloid nucleation score result was “inactive”. As to QRHAVWGSSGDLTYELIGSL, the amyloid nucleation score result is “inactive”. Next, TELVWLPWTRFCFGRNYRG: 0.101 ± 0.35; GSCPRSDAKSAADCIQV: -0.177 ± 0.79; SEFSNFKSLQPVYH: -0.047 ± 1.1. With YIKFIFCP the entry was “inactive”. Next, LGLDFLCIRYSGFKCTTF: 2.34 ± 0.14; LGSVGFAVWG: 0.17 ± 0.46; FYLSFRVECLGRR: 4.782 ± 0.045. With YFKFAGV, the amyloid nucleation score worked out at 4.16 ± 0.095. With DWRSLRLGVK the figure was -0.065 ± 0.32; with CEIHYIIRQRSPVLSNRVQR, “inactive”; with ALGINFSWACG, 4.998 ± 0.043. Next, LVRPSGANPSCWAIINRGEI: 10.63 ± 0.079; MSCSSIRLFQDSIRLCRTSR: -0.02 ± 0.32; IVVVLWTFFDG: -1.09 ± 0.55.

Substance GGSSRQTHW had an amyloid nucleation score of -0.375 ± 1.1.

Substance YPIIVFAVLCFEWETYWCSL registered an amyloid nucleation score of 0.015 ± 0.76. For YLSWHNFVYRLVYIYSGYFN, the amyloid nucleation score entry was “inactive”. With VWVVCEFLAVVPKTKIFRTD the figure was 0.721 ± 0.66; with GVARESRAGS, 4.96 ± 0.066.

For the substance HYYPLVAIR, the amyloid nucleation score was 0.389 ± 0.49. RCLGLCFICEYDFGVMRYSA yielded an amyloid nucleation score of -0.633 ± 0.48. Next, GFKDCV: 0.263 ± 0.22; RAMLNLKE: 2.46 ± 0.053; AGYLNRNHLLRMLYWCSCFG: “inactive”.

Take LSCRWHCIVTLDVAAYNEPE: the amyloid nucleation score stood at 5.765 ± 0.044. Next, KRFGNFMTLRTLRVT: 1.42 ± 0.14; TRLMCMFERYQACFTDLSDI: -0.698 ± 0.54; LFVSSDRHRSDESSGDACCL: -0.494 ± 0.76. Next, YSQFITGFGNNRHLTLSLAG: 0.389 ± 0.5.

In turn, TGWCGL registered an amyloid nucleation score of 5.54 ± 0.066. With QCVTSCCSSHEWHSTRQMIF the figure was -0.502 ± 0.46. With QLFRCGRWGLLFSAAFFYLV the figure was 0.264 ± 0.8; with FFCPRGRAFLSSRM, -0.788 ± 0.79; with LWHFVLWYMWLLIGDVVGVC, -0.459 ± 1.1. Next, KNLLVHNFACGR: 0.462 ± 0.74; IYNNLTCWSDASHGVCFGMD: 4.67 ± 0.058. Regarding VEGRYAPKRSYVTPGWDV, the amyloid nucleation score was -0.05 ± 0.55. With VIFCVLLVNNLDWRFWPSSK the figure was 4.928 ± 0.037; with FDTVGYSACCCWP, 4.78 ± 0.11. Next, CLYYEPVSL: -0.263 ± 1.1.

Substance NVYLTQSWSFHNLHRFYYST displayed an amyloid nucleation score of 2.57 ± 0.083. With AISCSVTWNVTMTSGLTPLC the figure was 1.17 ± 0.37. Next, MYKIF: “inactive”; SWSAIEPQVPKYYYSL: -0.623 ± 0.79; GICVFCNSYWL: 8.843 ± 0.055. Substance FGCIFYPMYLS showed an amyloid nucleation score of 5.32 ± 0.088. Next, DAYQEKCLCFVHRCYAQGRC: 0.163 ± 0.39. With FAYISRFKGG the figure was 4.22 ± 0.059; with HRCSKPSWKVCIEWCRSRCV, 0.614 ± 0.45; with HLMLRKGLVKCWVQTVVGSG, 1.48 ± 0.33.

With CVRDTLIETFHSVFNPHRRV, the amyloid nucleation score was 0.983 ± 0.29. With AVTIMCPAGLTMANSLVFKQ, the amyloid nucleation score was determined as 5.18 ± 0.07.

Take GTYAKSMLSSKVVAG: the amyloid nucleation score worked out at 1.48 ± 0.18. SFINGILRFLSRRCNCIWLL registered an amyloid nucleation score of 0.14 ± 0.5. With LLLINFSYNALTKVRSEEYL the figure was 3.86 ± 0.084; with FCIQK, -0.114 ± 0.55. In turn, LIADSCFFIQGDHPMLSELY registered an amyloid nucleation score of 0.888 ± 0.32. Next, IVDLNLGSEESLFSYLGMSV: -2.45 ± 0.54. With KERELSTTECCTILCSVLFY the figure was 6.852 ± 0.059. HIPRCINLVVRCTVKLVDGS showed an amyloid nucleation score of 2.35 ± 0.14. With CGKYSS the figure was 7.602 ± 0.041; with QVAKAYFEEGRRDDFSYHGK, 0.171 ± 0.56. Substance SMYCTPFILCYNPHSNRVAH came in with an amyloid nucleation score of 9.811 ± 0.037.

The substance VVGPFHFIVMMKVSKVRVKL had an amyloid nucleation score of 6.212 ± 0.039. With ARVCPCETTSTTVVA the figure was 1.23 ± 0.48; with WYIRPSKTCEVSFGYPRRSW, -0.891 ± 1.1. Next, TYSGLKNARWEFWMKSFDYF: -1.12 ± 0.5; IFMNPICFWSNRNFLVWSNN: 4.5 ± 0.059; QYSFKVDKTCRSVH: 0.147 ± 0.76.

For YLTLEMLAVDE, the amyloid nucleation score is -0.52 ± 1.1. With YYYDYVCLLWDLEEVSRHAL the figure was -0.442 ± 1; with FRVMSRVWTTEESAFLKLLC, -0.94 ± 0.63.

FWKSWHTPRALAKNSPSAFL gave an amyloid nucleation score of -0.779 ± 0.64.

VFAWRN: the amyloid nucleation score is -0.347 ± 1.1. With GGCGLH the figure was 0.261 ± 0.4; with FEEYEGLLDVSFKRPSFYCI, 0.456 ± 0.6; with CDSARFEGNVEAAR, -0.134 ± 0.34. As for MLIQVCALEGRYEVTQCVGG, the amyloid nucleation score turned out to be 1.82 ± 0.12. Next, NMYSCQYVCGTALDDDWVGC: 7.813 ± 0.059. With SNNNAIVNRSRIIRHFMNYC the figure was -0.604 ± 0.56; with GTYRNIRVWCRFRWVFENGC, 0.11 ± 0.74; with QTNTGIVESQRSVCLNKIAR, 0.234 ± 0.17.

Take DCHSMQFVVSFNT: the amyloid nucleation score is -0.705 ± 1.1. Next, RVRIVPDCFNVAACGGWYMD: -0.062 ± 0.45; GSSNGRALLYCITLKIMGIV: 0.769 ± 0.4; GLTFRFGTGTSLSRRFDATV: 6.507 ± 0.045. Next, MHCSESSYYFAILRARHVLL: 1.43 ± 0.12; LLINDKCPYERMAGQWLFGS: 0.268 ± 0.65. Next, FLGSVSVLLDKSSSGVNSKR: -0.284 ± 1.1.

On to QKDLVSRGQYEVIVDSGTLG, for which the amyloid nucleation score worked out at 4.446 ± 0.035.

CTPDLLSVNFDVVVLQW registered an amyloid nucleation score of -0.58 ± 0.55.

For the substance SYYQCCSG, the amyloid nucleation score is 3.15 ± 0.14. Next, GATLGVADRPGKSAGLPWTD: 0.998 ± 0.15. Next, MRDRMVAAARLFRGVSRLAF: -0.268 ± 0.48. ANNFCRINESDWVRSVILPS returned an amyloid nucleation score of 0.042 ± 1.1.

In the case of LPTIGVWLTRPRVCFLSYSV, the amyloid nucleation score amounted to 0.045 ± 0.63. With YGVFRSESRPTCLKSLDRMK, the amyloid nucleation score amounted to 0.575 ± 0.34. Consider LIMRIVWGGLQDQGSVRSSR, for which the amyloid nucleation score was 0.855 ± 0.35. With TIGGEASVPRRMPLYTLQCE the figure was 6.03 ± 0.088; with AEDMSQARA, 1.15 ± 0.15. With YWELQSHMGRFNSSCHLRWV, the amyloid nucleation score was -1.7 ± 0.76. Next, WSGVSGNLT: 0.145 ± 0.4. Next, SNLEFNLE: -0.747 ± 0.37. With AWENYYSGLVNLLAASACIV the figure was -0.163 ± 0.79; with QLIMS, “inactive”; with HTTASATPYFAGQV, 0.042 ± 0.38. Substance MDVES had an amyloid nucleation score of -0.192 ± 0.45. SGSAESFLT: the amyloid nucleation score was found to be 0.195 ± 0.53. Next, LIGVMGRCPGVLHLRSFVRD: 0.163 ± 0.37; IIVIVWQGWSNGVGLHSCGA: 3.15 ± 0.063; LWYSL: -0.558 ± 0.5. With KHIWAMNGCYSLLLKNPALV, the amyloid nucleation score is -0.649 ± 1.1. Next, LGYCSSSILCPCCHKILFDA: -0.521 ± 0.21; IMCCTRLLNSFSAITIVHIA: -0.03 ± 0.43.

For DQVLHCSLDQSVGGSDQL, the amyloid nucleation score result was “inactive”. With YSGDNVNVVKQRPSCFLISR the figure was -0.24 ± 0.74. With FFMCMQVWLRVFYVRGM the figure was -1.5 ± 0.36; with TQSNALPVGPYSFTFFGRGY, 0.54 ± 0.8; with LLKFRVCPW, 4.5 ± 0.086. With SGGRYTEATWECG the figure was 0.316 ± 0.65. In turn, ILYFCRVLITVCMIVDMWGE returned an amyloid nucleation score of 0.333 ± 0.64. Next, NRAVGNEAYCRSGWSGFHSL: -0.459 ± 1.1; RIASLTSLGGNMNCAVHSFE: -0.427 ± 1.1.

In the case of VHTMY, the amyloid nucleation score is -0.299 ± 1.1.
